Results taken from article PMC9328677 (2021).
Positions count from the first letter of the chain named. In names and notes the source's numbering stands.

B1: APLF^AD double anchor mutant Y462A/F468A (DA-34) (domain or fragment)
chain: DEDNDNVGQPNEADLNDSALDDEEEDYEPTDEDSDWEPGKEDEEKEDVEELLKEAKRFMKRK
B2: APLF^AD mutant of Y462 tested by ITC on H3-H4 (domain or fragment)
chain: B1 chain with A19F
B3: APLF^AD double anchor mutant Y476A/W485A (DA-AB) (domain or fragment)
chain: B1 chain with A13Y, A19F, Y27A, W36A
B4: acidic domain of Homo sapiens APLF (APLF^AD, residues 450 to 511), wild type (domain or fragment)
chain: B1 chain with A13Y, A19F
B5: APLF^AD F468A (protein)
chain: B1 chain with A13Y
B6: SUMO-APLF^AD quadruple anchor mutant Y462A/F468A/Y476A/W485A (QA) (domain or fragment)
chain: B1 chain with Y27A, W36A
B7: SUMO-APLF^AD truncated QA mutant (QA-Δ, residues 449 to 490) (domain or fragment)
chain: LDEDNDNVGQPNEADLNDSALDDEEEDAEPTDEDSDAEPGKE
B8: truncated APLF^AD construct corresponding to residues 449 to 490 (APLF^AD-Δ) (domain or fragment)
chain: GLDEDNDNVGQPNEYDLNDSFLDDEEEDYEPTDEDSDWEPGKE

molecular target: T1, Drosophila melanogaster histone H3-H4 complex, full-length (Drosophila melanogaster, UniProt P02299 1-136; P84040 1-103); assay: ITC

Binder | Kd
B1 | 7630 nM
B2 | 3090 nM
B3 | 2050 nM
B4 | 790 nM
B5 | 980 nM

molecular target: stoichiometric mixture of full-length Drosophila melanogaster H2A-H2B and H3-H4 (octamer-mix) (Drosophila melanogaster, UniProt P84051 1-124; P02283 1-123; P02299 1-136; P84040 1-103); assay: ITC

Binder | Kd
B1 | 671 nM
B6 | 794 nM
B7 | 1220 nM
B3 | 317 nM
B8 | 90 nM

molecular target: T1, Drosophila melanogaster histone H3-H4 …; assay: ITC; remark: another data set of the same source

Binder | Kd
B4 | 552 nM
